Experimental data published in publication PMC5778462.
Where two headings read alike, the source gives them in different places.

Experiments:
Assay in all cases: EMSA
MAZ = molecular target: T1, MAZ (UniProt P56270)
T1 sequence: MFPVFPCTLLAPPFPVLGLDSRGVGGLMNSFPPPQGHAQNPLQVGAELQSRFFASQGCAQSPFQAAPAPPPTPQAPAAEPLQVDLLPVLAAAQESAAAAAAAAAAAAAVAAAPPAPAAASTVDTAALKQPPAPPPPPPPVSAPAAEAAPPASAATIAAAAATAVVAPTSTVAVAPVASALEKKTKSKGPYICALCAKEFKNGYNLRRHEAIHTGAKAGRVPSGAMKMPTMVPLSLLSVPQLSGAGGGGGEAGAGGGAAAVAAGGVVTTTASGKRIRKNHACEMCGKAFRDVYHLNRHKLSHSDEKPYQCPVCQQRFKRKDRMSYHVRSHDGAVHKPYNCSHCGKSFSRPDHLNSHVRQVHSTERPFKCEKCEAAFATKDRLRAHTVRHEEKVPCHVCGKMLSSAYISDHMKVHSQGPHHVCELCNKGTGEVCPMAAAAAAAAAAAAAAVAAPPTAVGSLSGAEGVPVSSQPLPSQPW

OGG1 (hOGG1) [1] = molecular target: T2, OGG1 (hOGG1) (UniProt O15527 1-345)
OGG1 (hOGG1) [2] = molecular target: T2, OGG1 (hOGG1); remark: listed apart in the source

T2 sequence (O15527 whole entry): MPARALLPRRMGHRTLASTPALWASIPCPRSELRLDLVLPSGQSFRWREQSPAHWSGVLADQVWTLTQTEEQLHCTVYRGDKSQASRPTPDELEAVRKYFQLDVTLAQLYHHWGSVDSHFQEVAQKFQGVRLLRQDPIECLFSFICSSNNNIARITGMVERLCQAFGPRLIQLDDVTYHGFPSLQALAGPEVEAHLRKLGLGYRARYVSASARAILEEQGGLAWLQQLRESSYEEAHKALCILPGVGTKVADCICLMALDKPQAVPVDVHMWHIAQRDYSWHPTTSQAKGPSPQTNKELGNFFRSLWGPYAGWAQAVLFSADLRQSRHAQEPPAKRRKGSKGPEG

AGGGCGGTGTGGGAAGAGGGAAGAGGGGGAGG [97 G4]
binding signal (fold vs 32R G4) (MAZ; 8-oxoG at G16 and G23): 5

AGGGCGGTGTGGGAAGAGGGAAGAGGGGGAGG [95 G4]
binding signal (fold vs 32R G4) (MAZ; 8-oxoG at G16): 5

AGGGCGGTGTGGGAAGAGGGAAGAGGGGGAGG [96 G4]
binding signal (fold vs 32R G4) (MAZ; 8-oxoG in 11-nt loop (Table 1: one; text: two; positions only in figure)): 5

AGGGCGGTGTGGGAAGAGGGAAGAGGGGGAGG [32R G4]
binding signal (MAZ): 1 reference

B1: 32R G4 (structured_DNA)
DNA: AGGGCGGTGTGGGAAGAGGGAAGAGGGGGAGG
binding result (OGG1 (hOGG1) [1]): binds

B2: 92 G4 (structured_DNA)
DNA: B1 DNA
modifications: 8-oxoG at G6
binding result (OGG1 (hOGG1) [2]): binds

B3: 93 G4 (structured_DNA)
DNA: B1 DNA
modifications: one 8-oxoG in G-run III (exact position only in figure)
binding result (OGG1 (hOGG1) [2]): binds

B4: 94 G4 (structured_DNA)
DNA: B1 DNA
modifications: two 8-oxoG in G-tetrad runs (exact positions only in figure)
binding result (OGG1 (hOGG1) [2]): binds
